Assay results reported in IntAct's records for PubMed 19277847.

B1: Junctophilin-2 (Mus musculus), Q9ET78 (parent)
chain: MSGGRFDFDDGGAYCGGWEGGKAHGHGLCTGPKGQGEYSGSWNFGFEVAGVYTWPSGNTFEGYWSQGKRHGLGIETKGRWLYKGEWTHGFKGRYGIRQSTNSGAKYEGTWNNGLQDGYGTETYADGGTYQGQFTNGMRHGYGVRQSVPYGMAVVVRSPLRTSLSSLRSEHSNGTVAPDSPAADGPMLPSPPVPRGGFALTLLATAEAARPQGLFTRGTLLGRLRRSESRTSLGSQRSRLSFLKSELSSGASDAASTGSLAEGAEGPDDAAAPFDADIDATTTETYMGEWKNDKRSGFGVSERSSGLRYEGEWLDNLRHGYGRTTLPDGHREEGKYRHNVLVKGTKRRVLPLKSSKVRQKVEHGVEGAQRAAAIARQKAEIAASRTSHAKAKAEAAEQAALAANQESNIARTLAKELAPDFYQPGPEYQKRRLLQEILENSESLLEPPERGLGTGLPERPRESPQLHERETPQPEGGPPSPAGTPPQPKRPRPGASKDGLLSPGSWNGEPGGEGSRPATPSDGAGRRSPARPASEHMAIEALQPPPAPSQEPEVAMYRGYHSYAVRTGPPEPPPLEDEQEPEPEPEPEVRRSDSAPPSPVSATVPEEEPPAPRSPVPAKQATLEPKPIVPKAEPKAKARKTEARGLSKAGAKKKGRKEVAQAKEAEVEVEEVPNTVLICMVILLNIGLAILFVHLLT
partner: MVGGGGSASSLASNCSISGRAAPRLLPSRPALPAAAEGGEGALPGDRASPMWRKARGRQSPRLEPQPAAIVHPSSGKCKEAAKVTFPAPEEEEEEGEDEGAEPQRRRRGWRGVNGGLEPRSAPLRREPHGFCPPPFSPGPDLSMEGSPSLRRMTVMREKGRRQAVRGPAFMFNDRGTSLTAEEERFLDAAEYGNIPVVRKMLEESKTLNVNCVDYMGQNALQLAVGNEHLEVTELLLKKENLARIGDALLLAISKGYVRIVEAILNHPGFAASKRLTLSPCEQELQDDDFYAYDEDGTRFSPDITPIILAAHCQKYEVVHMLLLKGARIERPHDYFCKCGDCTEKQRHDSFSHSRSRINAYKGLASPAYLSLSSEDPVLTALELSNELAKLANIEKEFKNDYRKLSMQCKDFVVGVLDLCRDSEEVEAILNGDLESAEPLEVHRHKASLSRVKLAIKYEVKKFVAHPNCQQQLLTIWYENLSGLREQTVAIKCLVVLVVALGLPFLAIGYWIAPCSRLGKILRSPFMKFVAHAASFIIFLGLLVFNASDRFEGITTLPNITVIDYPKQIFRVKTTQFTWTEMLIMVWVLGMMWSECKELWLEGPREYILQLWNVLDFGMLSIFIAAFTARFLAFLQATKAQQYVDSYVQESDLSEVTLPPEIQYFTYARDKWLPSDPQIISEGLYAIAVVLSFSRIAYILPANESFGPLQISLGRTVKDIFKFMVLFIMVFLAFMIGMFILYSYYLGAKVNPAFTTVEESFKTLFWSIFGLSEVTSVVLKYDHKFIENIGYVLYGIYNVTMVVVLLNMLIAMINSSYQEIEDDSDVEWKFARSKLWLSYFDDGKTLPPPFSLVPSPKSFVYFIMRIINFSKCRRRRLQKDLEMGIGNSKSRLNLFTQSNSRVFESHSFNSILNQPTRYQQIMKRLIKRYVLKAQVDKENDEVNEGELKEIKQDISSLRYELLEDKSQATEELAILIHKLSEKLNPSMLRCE

Variants of: B1
Conditions: with TRPC3, G1U2U3

| effect of a mutation on the interaction | Variant |
| --- | --- |
| decreasing interaction | R216A |
| decreasing interaction | E227A |
| decreasing interaction | R222A |
